In the supplement of paper PMC12455559:
± gives the standard deviation of the averaged measurements.

What was measured:
[1] = melting temperature (DSF); higher = more thermostable
How it was run: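 Values are melting temperatures from differential scanning fluorimetry. Candidate enzymes were expressed in E. coli C41(DE3), purified on nickel beads and freed by SUMO protease cleavage. In sealed PCR plates on a Bio-Rad CFX96, 45 μL enzyme (0 to 0.3 mg/mL) was combined with 5 μL 5X Sypro Orange. Fluorescence was recorded from 25 °C for 250 cycles, rising 0.3 °C per cycle at a ramp of 0.3 °C/s.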

[2] = purified protein yield per well (BCA); higher = higher soluble expression
How it was run: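 On an OT-2 robot, lysed cells were processed by binding protein to Ni-charged magnetic beads and releasing it with SUMO protease. Expression took place in E. coli C41(DE3), in 2 mL autoinduction cultures with 100 µg/mL kanamycin, for 2 h at 37 °C followed by 40 h at 18 °C. The Pierce Rapid Gold BCA kit was used to quantify purified protein yield in each well, with values under 25 ug (0.1 mg/mL) below the detection threshold.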

[3] = PET hydrolysis, aromatic products released after 48 h (umol product/mg enzyme); higher = more PET depolymerization activity
How it was run: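 PET hydrolysis activity was taken as the aromatic product in the supernatant and expressed per mg enzyme. This product was measured by absorbance at 260 and 280 nm against buffer blanks. Each reaction held 5 μg (50 μL) of tagless, SUMO-cleaved candidate enzyme purified on nickel beads, plus 3.5 mg amorphous PET film or crystalline PET powder in 450 μL buffer: 50 mM NaCitrate (pH 4.5, 5.5), 50 mM NaPhosphate (pH 6.5, 7.5) or glycine (pH 8.5). Plates were sealed and left 48 h at 40 or 60 °C without shaking.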

[4] = substrate: aFilm, 40 °C, pH 4.5
[5] = substrate: aFilm, 40 °C, pH 5.5
[6] = substrate: aFilm, 40 °C, pH 6.5
[7] = substrate: aFilm, 40 °C, pH 7.5
[8] = substrate: aFilm, 60 °C, pH 4.5
[9] = substrate: aFilm, 60 °C, pH 5.5
[10] = substrate: aFilm, 60 °C, pH 6.5
[11] = substrate: aFilm, 60 °C, pH 7.5
[12] = substrate: cryPow, 40 °C, pH 4.5
[13] = substrate: cryPow, 40 °C, pH 5.5
[14] = substrate: cryPow, 40 °C, pH 6.5
[15] = substrate: cryPow, 40 °C, pH 7.5
[16] = substrate: cryPow, 60 °C, pH 4.5
[17] = substrate: cryPow, 60 °C, pH 5.5
[18] = substrate: cryPow, 60 °C, pH 6.5
[19] = substrate: cryPow, 60 °C, pH 7.5

## ADNPYQRGPDPTQSSVTAVNGPFANTSVSVPTGYGFNGGRIYYPTDTSQGTFGAIAISPGYTALFSAELAWMGPWLASHGFVVIGIETNSRNDFDTARGTQLLAALDYLTQQSPVRDRVDPTRLAVAGHSMGGGGALSAAMRRPSLKAVVGIAPYSPSSNLANDRVPTMILSGQADTVVTPSYATGLYNSLPSTTESVYLEVAGADHGFMVGRPNPVMVRTMLPFVKMFVDNDARYSQFLCPLLDSSGVVTYRSTCPLLPTTPTTPTPTTPGPTTPGPTPTVSPSVPPTSAGEIVGTQSGRCIDVPNASRNNGTRVQLYDCNRQTNQTWTYTSGKQLQVYGNMCLDAAGTGNGAAVQIYSCHSQTNQQWNINANGTISNVQSGRCLDAWSTANGAQIQLYDCHGQTNQQFRLVARA [ESM075]
[1]
  melting temperature: 62.2 C
[2]
  purified protein yield per well: 233 µg
[3]; [4]
  PET hydrolysis: < 3
[3]; [5]
  PET hydrolysis: 4
[3]; [6]
  PET hydrolysis: < 3
[3]; [7]
  PET hydrolysis: < 3
[3]; [8]
  PET hydrolysis: < 3
[3]; [9]
  PET hydrolysis: < 3
[3]; [10]
  PET hydrolysis: < 3
[3]; [11]
  PET hydrolysis: < 3
[3]; [12]
  PET hydrolysis: 12.5 ± 2.1
[3]; [13]
  PET hydrolysis: 21 ± 1.4
[3]; [14]
  PET hydrolysis: 23 ± 1.4
[3]; [15]
  PET hydrolysis: 7
[3]; [16]
  PET hydrolysis: < 3
[3]; [17]
  PET hydrolysis: 1.5 ± 2.1
[3]; [18]
  PET hydrolysis: < 3
[3]; [19]
  PET hydrolysis: < 3

## ADNPYQRGPDPTRASVAAENGPFANTSVSAPTGYGFNGGRIYYPTDTSQGTFGAIAISPGYTALFSAELAWMGPWLASHGFVVIGIETNSRNDFDTARGTQLLAALDYLTQQSPVRDRIDPNRLAVSGHSMGGGGALSAAMRRSSLKAVVGITPYSPSSNLANVQVPAMVISGQADTVVTPSYALGLYNSLPASTESAYLEVAGGDHGFMVGRSNPVLIRTMLPFVKMFVDNDARYSQFLCPLLDNSGVVTYRSTCPLLPPPTATPTPTGTPTPTPTPTVSPTTPPNSANRIVGVQSGRCIDVPNASRDNGTRVQLYDCHGQSNQSWTYTASKQLRVYGDMCLDAGGSGNGAGIQIYSCHSQTNQQWNVNSNGTISGVQSGRCLDVWSTSNGAQVQLYDCHGQTNQQFNLVPLT [TEP167]
[1]
  melting temperature: 57.1 C
[2]
  purified protein yield per well: 180 µg
[3]; [12]
  PET hydrolysis: < 3
[3]; [13]
  PET hydrolysis: < 3
[3]; [14]
  PET hydrolysis: < 3
[3]; [15]
  PET hydrolysis: < 3
[3]; [16]
  PET hydrolysis: < 3
[3]; [17]
  PET hydrolysis: < 3
[3]; [18]
  PET hydrolysis: < 3
[3]; [19]
  PET hydrolysis: < 3

## ADNPYQRGPDPTRASVAAVNGPFANTSVSVPTGYGFNGGRIYYPTDTSQGTFGAIAISPGYTALFSAELAWMGPWLASHGFVVIGIETNSRNDFDTARGTQLLAALDYLTQQSPVRDRVDPNRLAVSGHSMGGGGALSAAIRRSSLKAAVGITPYSPSQNLANDRVPTMVISGQADTVVTPSYALNLYNSLPASTESVYLEVAGGDHGFMVGRSNPVLIRTMLPFLKMFVDNDSRYSQFLCPLLDSSGVVTYRSTCPLLPTDPTTPPTGSPTPTPTTPPPSGSANEIIGTQSGRCVDVPNASRNNGTRVQLYDCNKQTNQSWTYTSNRQLRVYDNMCLDAAGSGNGAAIQIYTCHSGTNQQWNVNSNGTITGVQSGRCLDVWSSNNGAQIQLYDCHGQPNQQFRLAPLA [TEP010]
[1]
  melting temperature: 62.8 C
[2]
  purified protein yield per well: 269 µg
[3]; [4]
  PET hydrolysis: < 3
[3]; [5]
  PET hydrolysis: < 3
[3]; [6]
  PET hydrolysis: < 3
[3]; [7]
  PET hydrolysis: < 3
[3]; [8]
  PET hydrolysis: < 3
[3]; [9]
  PET hydrolysis: < 3
[3]; [10]
  PET hydrolysis: < 3
[3]; [11]
  PET hydrolysis: < 3
[3]; [12]
  PET hydrolysis: 13.5 ± 2.1
[3]; [13]
  PET hydrolysis: 24
[3]; [14]
  PET hydrolysis: 41 ± 1.4
[3]; [15]
  PET hydrolysis: 27 ± 4.2
[3]; [16]
  PET hydrolysis: < 3
[3]; [17]
  PET hydrolysis: 6 ± 1.4
[3]; [18]
  PET hydrolysis: 5 ± 1.4
[3]; [19]
  PET hydrolysis: 2 ± 2.8

## ADNPYQRGPDPTRASVAAVNGPFVNTSVSVPTGYGFNGGRIYYPTDTSQGTFGAIAISPGYTALFSAELAWMGPWLASHGFVVIGIETNSRNDFDTARGTQLLAALDYLTQQSPVRDRVDPNRLAVSGHSMGGGGALSAAIRRSSLKAAVGITPYSPSQNLANDRVPTMVISGQADTVVTPSYALGLYNSLPASTESVYLEVAGGDHGFMVGRSNPVLIRTMLPFLKMFVDNDSRYSQFLCPLLDSSGVVTYRSTCPLLPTNPTTPPPTGTPTPTPTSTPTPTPTPTTPPPSGSANE [ESM091]
[1]
  melting temperature: 62.5 C
[2]
  purified protein yield per well: 336 µg
[3]; [4]
  PET hydrolysis: < 3
[3]; [5]
  PET hydrolysis: < 3
[3]; [6]
  PET hydrolysis: < 3
[3]; [7]
  PET hydrolysis: < 3
[3]; [8]
  PET hydrolysis: < 3
[3]; [9]
  PET hydrolysis: < 3
[3]; [10]
  PET hydrolysis: < 3
[3]; [11]
  PET hydrolysis: < 3
[3]; [12]
  PET hydrolysis: 13.5 ± 0.71
[3]; [13]
  PET hydrolysis: 28 ± 1.4
[3]; [14]
  PET hydrolysis: 10
[3]; [15]
  PET hydrolysis: < 3
[3]; [16]
  PET hydrolysis: < 3
[3]; [17]
  PET hydrolysis: < 3
[3]; [18]
  PET hydrolysis: < 3
[3]; [19]
  PET hydrolysis: < 3
